Patent publication US11167035B2, “Insulin compositions and method of making a composition” (Novo Nordisk A/S, priority 2005, dated 2021)

Experiment: SEC on Superose 6 PC, insulin self association
Assay type: physicochemical
Settings: 600 μM insulin
Protocol: Analysis by size exclusion chromatography (SEC) on a Superose 6 PC column (0.32*30 cm) using isotonic 10 mM tris-buffered saline optionally added 2 mM phenol at 37° C. and pH 7.3, injection volume of 20 μL, flow of 0.05 mL/min and run time 130 min. First reference of Blue dextran (>>5 MDa, KAV 0.0), Thyroglobulin (669 kDa, KAV 0.28), Ferritin (440 kDa, KAV 0.39), Ovalbumin (44.5 kDa, KAV 0.56), Ribonuclease (13.7 kDa, KAV 0.69) and a second reference of Albumin (66 kDa, KAV 0.53), Co(III)insulin-hexamer (35 kDa, KAV 0.61), and monomeric insulin X2 (6 kDa, KAV 0.73). Retention time of blue dextran was 17.9 min (to) and 0.74 min without column (td), and retention time of albumin (HSA) was about 34.1 min, KAV=(t−t0)/(V/f+td−t0) with
KAV area peak1 is measured from KAV=0 to KAV=0.46 (32 min) as relative area % of total area for KAV<0.46 corresponding to self association larger than albumin. For KAV peak 1 about 0.56 (albumin size) integration cut is between albumin size and insulin hexamer size.
For SEC method without phenol in eluent peak1 contain associated forms larger than albumin and peak2 contain dihexameric, hexameric, dimeric and monomeric forms of insulin.
For SEC method including 2 mM phenol in the eluent peak1 contain dihexameric and other larger forms of insulin and peak2 contain hexameric, dimeric and monomeric forms of insulin.
The formulations were studied after storage 2 week at 37C compared to storage at 5C by the SEC method described in example 4 using an eluent with 2 mM phenol. Reference formulations without citrate at 3, 5 and 6 Zn/6ins.deriv. were included.

Substance	Kav 2 Zn peak 1 (2 zinc/hexamer)	Relative area % peak 1 (2 zinc/hexamer) [%]	Kav 6 Zn peak 1 (6 zinc/hexamer)	Relative area % peak 1 (6 zinc/hexamer) [%]
B29Nε-(2-{[(2-Carboxy-ethyl)-(15-carboxy-pentadecanoyl)-amino]-methyl}-benzoyl) desB30 human insulin	0.16	54	0.03	93
B29Nε-(4-{[(2-Carboxy-ethyl)-(14-carboxy-tetradecanoyl)-amino]-methyl}-benzoyl) desB30 human insulin	0.09	55	0.00	96
B29Nε-(4-{[(2-Carboxy-ethyl)-(15-carboxy-pentadecanoyl)-amino]-methyl}-benzoyl) desB30 human insulin	0.01	84	0.00	98
B29Nε-[(5-{[(2-Carboxy-ethyl)-(15-carboxy-pentadecanoyl)-amino]-methyl}-furan-2-carbonyl) desB30 human insulin	0.02	81	0.03	96
B29Nε-hexadecandioyl-gamma-Glu-(3-(2-{2-[2-(2-amino-ethoxy)-ethoxy]-ethoxy}-ethoxy)-propionyl desB30 human insulin	0.09	79	0.06	89
